Data as given in the DeepSol protein solubility set.

Experiment: soluble on expression in E. coli; label from the status in PepcDB or PDB records
With “SMQPIVIHSSGKNYGFTIRAIRVYVGDSDIYTVHHIVWNVEEGSPACQAGLKAGDLITHINGEPVHGLVHTEVIELLLKSGNKVSITTTPFENTETSV” the “soluble on expression in E. coli” value was “soluble”. In the case of “MESYLRLSEVDKQILHSHALMLDGLGNFFGSTHEVILHSLENLESSAIKVINGHFSNRKEGAPITDMALKMLSQVESEHDYAVKPYYNKNQKGVILKSSTIPVIGENDRIIGLICINMHLEMPLIDYLQDLLPSGQQNDMSQELKNSEHFSDNIDELITTSLTKVKQAVESDPNVSHLNQNKEIVIRLYDQGIFNLKDSVIKIADRLGISKNTIYLHIRNHKKEEA”, the “soluble on expression in E. coli” value is reported as “not soluble”. With “MGSDKIHHHHHHMHHIGLTRPYSWGIKNFELITVTEKLNIHIQGQGFPILGLHGHPGSGRSLSVFTNHLSKRYQTIAPDLRGYGTSRFRGNFTMQDHLTDLEALLDRLQIEKCLVLGWSLGGILAMELALRLPQRITGLILVATAARPRGNHPPISWQDNLYTGVAGLLNYIKPGWRWNIETFGKRSLFRYLIQQHTPTAYNYIAREALPAYLQTSPSATRALNSALRLGYNRLADLEQIHCPSLVLAGAQDKHITADSSLETAQHLKQSQWQCYPHTAHLFPWEIPQQVINDIDLWLANNSQVMSN” the “soluble on expression in E. coli” value was “not soluble”. For “MSLELKNKKIVVTGGTSGIGLAFAKKLAAIDNQIIIGSRSKEKITEVVKDNKNISGYQVDVSDQESVERFYKQTISEFKNIDIVINSAGIMRHYNLLDEKTTSQKLQAEIQTNLIGTINIDKIFLPILRKQAESMIVNISSGLANLSSAAHPIYSATKAGVHMFTDALREQLHFAGEDHIHIVELVPPLVAETNLEKDVNSQNTPLNIKLSDLINEAIQGIEENSIRINAGMAKEMRKMGQTDPDKNEREMATMMIPMYFPDGLKEGHHHHHH”, the “soluble on expression in E. coli” value was “not soluble”. In the case of “GACEQNEDWVVNEPMQSFEENPEYAPLNTIPDWVSEKVTPKEYELWRTMSSRYEINYSFLKKDISEKRKKEIYDCINNICERIEKGQINKYEGFLNIADEDGTTLSDSQYFGRIATRSPEGGAEYKTNGCTLYTHSLGPYIKAAVTYKKSDDDVTITSSSVYTGSPYLGNDPSFSGASSVSYDKDKKLIAASCSGTLSFKDGSRKVEVTVQKTGFMIP”, the “soluble on expression in E. coli” value is reported as “soluble”. With “SLSDTQEPVKLRIVHFNDVYNVFSISGGLGGGAAPFCTGLREKRGPDGLVLFSGDIFSPSPLSEASKGRQMAELLNYLDVHTSCYGNHDLDFGWEWLELLAGTTKCKWVMSNARSKIGGGVLANAQRYRIFEWGTTQRVVVGIMALIEEDWIDTLNAPDQEEIVYQDFVEAGREMVALFRRRGCDLVIALTHMRWNNDEKLAREVDGIDLILGGHDHAYVTKLVNGTAVIKSGSDFREFSAITLTPKLHLREQGTSHATGFSADHDSLAADGKNGYPVAFSGSTGGVAEVDGLCRQHGDSSHAVKRAGVCECLGRTQPVRQTKPEVVEGIHTEETQPAKLWSSGRWWLSCEKVCVSADRFEADDSVMEMLVRYQTTYGNSQGCVLGAFPVLLETRFCEVRTRECNSGNWLADLMREYYGVDVALYNSGGIRSDCVFAEGEVVTSETLHAILSGTRQLDVIAVPGNLFKSILETSVSRWPQLEGRFLQVSGLRFVFEGSARVGERVLADEIQFRNRETGDWEPLVPDRVYSVATATFLARGGDGLSVLVDCPPLDTPQRNIRDLSELARLWFCRQHRKCGFEDVEEIPPRECEWIDR” the “soluble on expression in E. coli” value was “not soluble”. For “SNGAGLAADIQLQRDAKTPLALSAKLAEVFFRTGNPLAATLADWPGLLELGNGRATAAAGWKLDAAGGSSLDLDLTLKGLDGIYDRSELKGLGGSLALRLRGGQLSLDSPGLSLAEANPGLPLGPVSFRGRYEAPLSAPGSGRLSWQTLQSGLFGGQASVPAGSIRLGQAEQKFALRIQGIQLGEIFRVYPAEGLAGEGTLDGELPLMLNRWKPSVSGGQVKAREPGYLRFRSAKIEALGRSNPGMKLVADALDDFHYDVLQSSVDYHENGKLLLGLRLQGSNPDLEKGRPVNLNVNLEEDIPALLTSLQLSDRVSETIRQ”, the “soluble on expression in E. coli” value was “not soluble”. With “SLAFEPPRRLVRAFGETAPEGDDWLATLPEVAERAVARRGLTVERVQVPGGRSSLVVLVRTAEGAPAVLKLAPRRARPESERAALVHWGGRGAVQVREEGDEEGVLLLERLHPDVSVRSLPEAKALLEAAGTLRRLWVEPPGSHPFETVAERTGRQAEAMRAGAAADAQVAPLVDAALAARAELLGGPSEQRLLHGTFRQSKVLAGDRMPWLAVGPDPVVGESAFDLARLVRDRVEDLIAQPSGASTTRRRIKRLAESLEVDQERLRGWTLFRAVESGVRARRVGRERDAELLLEFAGWL” the “soluble on expression in E. coli” value was “soluble”. In the case of “MKYSSIFSMLSFFILFACNETAVYGSDENIIFMRYVEKLHLDKYSVKNTVKTETMAIQLAEIYVRYRYGERIAEEEKPYLITELPDSWVVEGAKLPYEVAGGVFIIEINKKNGCVLNFLHSKLEHHHHHH”, the “soluble on expression in E. coli” value is reported as “not soluble”. With “MREILNHFDRPLNKKNSFQKIQNLSCQTHTKRFYREVKISCEEGGFSVLLDGCPVKTPAKRHFCLPTEVFAAFVAEEFENQKQVIDPAKMPMTRLVNTVIDGIADNMQAVFEDLLRFVACDMIFYRAQTPKELVQRQCEQWDPLLDWAEEKLGARFHVTEGLMHIEQSRESIQAVSNYLRKVESPYMLAALHTITTLTGSALIALAFSEGKIDSEHAWKIAHLDENWMMEQWGIDEETLARSSHKKSEFDAAGTIITTCLLEHHHHHH” the “soluble on expression in E. coli” value was “not soluble”. With “MSLAPSPSSSTAPAALQQLGWQARLRWVHGICQGLPKVAQQLDEFLANQTGVVSTAREMQEWREAWVGFQQHKDAWVQACSQALQQAARKPPSQAGESSASGSAPLNFELLSDDVVENKILASRMALAMGETLQPGFEAMRLRMQALEGHELPSRDMFRAETICLHLVEQWLSCGMERKHLLRAVEPLQNALAPLMESEYGILHKLLDAKGVSKAQDAPLRVKRTEGGPPTGAMPLGGASGFGHAAEPGWSSSAMQQFMSAGMAAGIGTEPGIALPPGASAGLGMLARARHRALDAMNQLRQVLSQPAVGIPGLMPGAPLVPMPPASAALAQALQEQQQLMVAELRAQYPAATGSAMAMPAMDYSPAAIDQLVNQVRERSADWKQKAQTTGEKATIEVVALMFQSILSEDRLPPSIRVWFARLQVPVLRVALAEPQFFSDLNHPARKLIDRMGSCVMGFDASSINGNALETEIRRVVQVIEQYPETGQKVFALVLREFEAFLTKHFAQNRSTAKITSVAQQVEQKETLAIQYTIELRNMLTDMPVREEVRDFLFKSWADVLAMATVRYGAKDARAMRFKQAASELVWSASAKPSRQERARVIQGLPTLLQTLREGLELVSVTGDAQSTAIKVLTDTLAQAFMSKTAAIPAERIEAMAKRLSELEKYISEDGKLDDMPLSSESIELMLGVDAGDLNVIPNTDSPVEPAMLEWARSLESGRWFTLDHNGSRVQVQYVWHSRRRHLHLFASLDGHCYLLQAQRMATYLQAGLLAVHDAEALTVRATRDALQKIQANPEREGHHHHHH” the “soluble on expression in E. coli” value was “soluble”. With “MGSDKIHHHHHHMKRKTKLDKKSKWVLDMKFGVSSLVFLPESLTSSMEKIAEHNFDAWEIVCEGTHYLSPKNIKYLMELRDRYEVEIVVHAPFSDLNPASMNERVRKLTVECIRDAIEGAFELDSEVVVVHPGYIPELWSNYVSEILDNNFSTLSEIVEIAEDYGIKIGLENMPNFRGVLGITPESLLEIVKDIDSKNLGITFDIGHANTAGNPAEFVEKLQNIGIGIIHVHAHDNNGYDDEHLKIGEGNINFIEVLEKLKEIGYDGVISIENKNIRDAVKSKEILKEYLEIVNEKVAEKEKIEE” the “soluble on expression in E. coli” value was “not soluble”. For “TKDFSWDTTLSFTWSKEKINSLPTGDLIKENLFEGQPIHALYDYKYAGIWGSNVPQETLDAYGVKPGWVKIETLDKDGDGGVHKYGEDDRQILGHTNPDVILGLNNTLTYKNFDLSIFAMARYGQTIKSSLIGWYRASSNYSINQPAGVDYWTENNQGAYYPVPGSGDEQKVMSALTYRDGSFIKVKNITLGYTLPQSVSRKVLMEKCRFYATAYNPFLYVKDKELRGTDPETNGSDAFPLYKQFVFGINVTF”, the “soluble on expression in E. coli” value was “not soluble”. In the case of “MNINLETAEQHAVQAYSDKKIQINSIIYESSLIVSKKEIITDFVIKDIQDINNSYIDLLLRSKPELIIIGHLQTGKTLPATLISQLSQKRIGIECMSIGAACRTYNVLLSEHRAVVAGFIFLEHHHHHH”, the “soluble on expression in E. coli” value is reported as “not soluble”.
